{
  "source": "patent EP4692114A1",
  "about": "“CALCITONIN ANALOGUE, AND DERIVATIVE THEREOF AND USE THEREOF” (Hangzhou Sciwind Biosciences Co., Ltd., priority 2023, dated 2024)",
  "binders": {"B1": {"name": "calcitonin derivative M34 (peptide)", "peptide": "{C20 diacid-γGlu}-ASELSTAVLGRLSEELHRLEDYPRTDVGSGSP-NH2", "SMILES": "CC(C)C[C@H](NC(=O)[C@H](CCCNC(=N)N)NC(=O)CNC(=O)[C@H](CC(C)C)NC(=O)[C@@H](NC(=O)[C@H](C)NC(=O)[C@@H](NC(=O)[C@H](CO)NC(=O)[C@H](CC(C)C)NC(=O)[C@H](CCC(=O)O)NC(=O)[C@H](CO)NC(=O)[C@H](C)NC(=O)CC[C@H](NC(=O)CCCCCCCCCCCCCCCCCCC(=O)O)C(=O)O)[C@@H](C)O)C(C)C)C(=O)N[C@@H](CO)C(=O)N[C@@H](CCC(=O)O)C(=O)N[C@@H](CCC(=O)O)C(=O)N[C@@H](CC(C)C)C(=O)N[C@@H](Cc1c[nH]cn1)C(=O)N[C@@H](CCCNC(=N)N)C(=O)N[C@@H](CC(C)C)C(=O)N[C@@H](CCC(=O)O)C(=O)N[C@@H](CC(=O)O)C(=O)N[C@@H](Cc1ccc(O)cc1)C(=O)N1CCC[C@H]1C(=O)N[C@@H](CCCNC(=N)N)C(=O)N[C@H](C(=O)N[C@@H](CC(=O)O)C(=O)N[C@H](C(=O)NCC(=O)N[C@@H](CO)C(=O)NCC(=O)N[C@@H](CO)C(=O)N1CCC[C@H]1C(N)=O)C(C)C)[C@@H](C)O"}, "B2": {"name": "calcitonin derivative M17 (peptide)", "peptide": "{C20 diacid-γGlu}-ASQLSTAVLGRLSQELHRLQDYPRTQSGSGSP-NH2", "SMILES": "CC(C)C[C@H](NC(=O)[C@H](CCCNC(=N)N)NC(=O)CNC(=O)[C@H](CC(C)C)NC(=O)[C@@H](NC(=O)[C@H](C)NC(=O)[C@@H](NC(=O)[C@H](CO)NC(=O)[C@H](CC(C)C)NC(=O)[C@H](CCC(N)=O)NC(=O)[C@H](CO)NC(=O)[C@H](C)NC(=O)CC[C@H](NC(=O)CCCCCCCCCCCCCCCCCCC(=O)O)C(=O)O)[C@@H](C)O)C(C)C)C(=O)N[C@@H](CO)C(=O)N[C@@H](CCC(N)=O)C(=O)N[C@@H](CCC(=O)O)C(=O)N[C@@H](CC(C)C)C(=O)N[C@@H](Cc1c[nH]cn1)C(=O)N[C@@H](CCCNC(=N)N)C(=O)N[C@@H](CC(C)C)C(=O)N[C@@H](CCC(N)=O)C(=O)N[C@@H](CC(=O)O)C(=O)N[C@@H](Cc1ccc(O)cc1)C(=O)N1CCC[C@H]1C(=O)N[C@@H](CCCNC(=N)N)C(=O)N[C@H](C(=O)N[C@@H](CCC(N)=O)C(=O)N[C@@H](CO)C(=O)NCC(=O)N[C@@H](CO)C(=O)NCC(=O)N[C@@H](CO)C(=O)N1CCC[C@H]1C(N)=O)[C@@H](C)O"}, "B3": {"name": "calcitonin derivative M65 (peptide)", "peptide": "{C22 diacid-γGlu}-ASQLSTAVLGRLSEELHRLQDYPRTDVGSGSP-NH2", "SMILES": "CC(C)C[C@H](NC(=O)[C@H](CCCNC(=N)N)NC(=O)CNC(=O)[C@H](CC(C)C)NC(=O)[C@@H](NC(=O)[C@H](C)NC(=O)[C@@H](NC(=O)[C@H](CO)NC(=O)[C@H](CC(C)C)NC(=O)[C@H](CCC(N)=O)NC(=O)[C@H](CO)NC(=O)[C@H](C)NC(=O)CC[C@H](NC(=O)CCCCCCCCCCCCCCCCCCCCC(=O)O)C(=O)O)[C@@H](C)O)C(C)C)C(=O)N[C@@H](CO)C(=O)N[C@@H](CCC(=O)O)C(=O)N[C@@H](CCC(=O)O)C(=O)N[C@@H](CC(C)C)C(=O)N[C@@H](Cc1c[nH]cn1)C(=O)N[C@@H](CCCNC(=N)N)C(=O)N[C@@H](CC(C)C)C(=O)N[C@@H](CCC(N)=O)C(=O)N[C@@H](CC(=O)O)C(=O)N[C@@H](Cc1ccc(O)cc1)C(=O)N1CCC[C@H]1C(=O)N[C@@H](CCCNC(=N)N)C(=O)N[C@H](C(=O)N[C@@H](CC(=O)O)C(=O)N[C@H](C(=O)NCC(=O)N[C@@H](CO)C(=O)NCC(=O)N[C@@H](CO)C(=O)N1CCC[C@H]1C(N)=O)C(C)C)[C@@H](C)O"}},
  "note": "*1 amine or outer side, *2 acyl side, *3 side chain or, on linkers, in order; H or OH if unused. The star is where a group is joined. C22 diacid = O=C(O)CCCCCCCCCCCCCCCCCCCCC(=O)*; C20 diacid = O=C(O)CCCCCCCCCCCCCCCCCCC(=O)*; γGlu = O=C(O)[C@H](CCC(=O)[*:2])N[*:1]",
  "data": [
    {"biological_target": "T1, human amylin receptor (AMY3) on CHO-K1/Gal5/AMY3 cells (human, UniProt P30988 25-474; O60896 24-148)", "T1 sequence (looked up) 1": "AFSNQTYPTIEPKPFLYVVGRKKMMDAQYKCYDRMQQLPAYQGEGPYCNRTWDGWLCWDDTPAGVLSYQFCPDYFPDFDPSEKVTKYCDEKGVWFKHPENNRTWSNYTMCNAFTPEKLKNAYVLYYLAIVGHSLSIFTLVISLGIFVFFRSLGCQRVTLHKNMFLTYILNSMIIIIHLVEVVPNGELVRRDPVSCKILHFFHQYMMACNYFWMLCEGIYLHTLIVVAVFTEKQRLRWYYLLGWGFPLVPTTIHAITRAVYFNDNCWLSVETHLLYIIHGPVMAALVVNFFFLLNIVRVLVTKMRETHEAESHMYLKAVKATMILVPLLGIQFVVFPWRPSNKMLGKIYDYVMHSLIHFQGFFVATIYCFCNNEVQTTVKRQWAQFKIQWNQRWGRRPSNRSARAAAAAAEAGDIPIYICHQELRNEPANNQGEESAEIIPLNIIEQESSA", "T1 sequence (looked up) 2": "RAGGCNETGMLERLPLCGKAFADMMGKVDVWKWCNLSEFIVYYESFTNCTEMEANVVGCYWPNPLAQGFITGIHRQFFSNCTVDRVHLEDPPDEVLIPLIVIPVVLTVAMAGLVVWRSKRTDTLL", "assay": "cell-based or functional assay", "units": {"EC50/nM, CRE-luciferase in amylin receptor/CRE-luc CHO cells": "nM"}, "values": [
      {"binder": "B1", "EC50/nM, CRE-luciferase in amylin receptor/CRE-luc CHO cells": 0.058},
      {"binder": "B2", "EC50/nM, CRE-luciferase in amylin receptor/CRE-luc CHO cells": 0.042},
      {"binder": "B3", "EC50/nM, CRE-luciferase in amylin receptor/CRE-luc CHO cells": 0.017}
    ]}
  ]
}
